Reference: article PMC9947658, “Escherichia coli CspA stimulates translation in the cold of its own mRNA by promoting ribosome progression”

Key:
CspA [1] = target: T1, CspA (Escherichia coli, UniProt P0A9X9 1-70); assay: tryptophan fluorescence quenching; 20°C; Trp fluorescence: 1 uM CspA, Buffer H, 20°C; EMSA: Buffer O, 15 or 37°C, 10% native PAGE at 4°C; Fe-EDTA footprinting: Buffer N, 15°C; UV cross-linking at 15°C; buffer compositions not given in the material; conditions: protein: recombinant; tags: His-tag (pETM11) removed with TEV; single strand
CspA [2] = target: T1, CspA; assay: tryptophan fluorescence quenching; 20°C; text calls the G6A variant oligo 6, table and Fig S10 oligo 5; Trp fluorescence: 1 uM CspA, Buffer H, 20°C; EMSA: Buffer O, 15 or 37°C, 10% native PAGE at 4°C; Fe-EDTA footprinting: Buffer N, 15°C; UV cross-linking at 15°C; buffer compositions not given in the material; conditions: protein: recombinant; tags: His-tag (pETM11) removed with TEV; single strand
[3] = target: Escherichia coli 30S ribosomal subunits (E. coli); assay: ITC; control experiment: IF1 and 30S subunits, at low temperature, under comparable conditions; ITC buffer

T1 sequence (P0A9X9 whole entry): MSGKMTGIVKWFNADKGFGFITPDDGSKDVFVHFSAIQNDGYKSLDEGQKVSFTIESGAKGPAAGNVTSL

Binder | Kd (CspA [1]) [nM] | other results
AACUGGUA (ssRNA) [Oligo 1] | 1240 ± 80 | 
AACUAGUA (ssRNA) [Oligo 4] | 1030 ± 60 | 
AAAUGGUA (ssRNA) [Oligo 2] | 2300 ± 130 | 
AACUGAUA (ssRNA) [Oligo 5] |  | Kd (CspA [2]): 4860 ± 240 nM
AACUGGAA (ssRNA) [Oligo 6] | 2080 ± 140 | 
AACAGGUA (ssRNA) [Oligo 3] | 1240 ± 50 | 
AAAAAAAAA (ssRNA) [Oligo 7 (poly-A)] | 5130 ± 1150 | 
initiation factor IF1 (natural protein) MAKEDNIEMQGTVLETLPNTMFRVELENGHVVTAHISGKMRKNYIRILTGDKVTVELTPYDLSKGRIVFRSR |  | Kd [3]: 806 nM
